Measured values as given in patent US20240116985A1, “STAPLED PEPTIDES AND METHODS THEREOF” (priority 2020, published 2024).
Where “and” joins values, the source holds several entries; their conditions need not be identical. Identical values can stand only once. Starred links: 1 amine or outer side, 2 acyl side, 3 side chain; linkers in the order of their positions; H or OH if unused. Positions of bridges follow the written chain, without caps; N, C: chain ends. Non-standard residues stand in square brackets, D forms with d. PyrS2 = (S)-3-amino-1-((pent-4-en-1-yloxy)carbonyl)pyrrolidine-3-carboxylic acid, C=CCCCOC(=O)N1CC[C@@](N[*:1])(C(=O)[*:2])C1; B5 = 2-amino-2-(pent-4-en-1-yl)hept-6-enoic acid, C=CCCCC(CCCC=C)(N[*:1])C(=O)[*:2]; Bta = N[C@@H](Cc1csc2ccccc12)C(=O)O; αAllylPro = C=CC[C@@]1(C(=O)O)CCCN1; tBuAla = CC(C)(C)C[C@H](N)C(=O)O; 3Thi = N[C@@H](Cc1ccsc1)C(=O)O

What was measured:
[1] = molecular target: beta-catenin-Halo NanoBRET construct (Homo sapiens (Human)) (UniProt P35222); experiment: NanoBRET, Bcat-Halo/TCF4-Luc in HEK293 cells; peptide 5 uM; replicate 2; competitor TCF4-Luc
beta-catenin-Halo NanoBRET construct (Homo sapiens (Human)), sequence (P35222 whole entry): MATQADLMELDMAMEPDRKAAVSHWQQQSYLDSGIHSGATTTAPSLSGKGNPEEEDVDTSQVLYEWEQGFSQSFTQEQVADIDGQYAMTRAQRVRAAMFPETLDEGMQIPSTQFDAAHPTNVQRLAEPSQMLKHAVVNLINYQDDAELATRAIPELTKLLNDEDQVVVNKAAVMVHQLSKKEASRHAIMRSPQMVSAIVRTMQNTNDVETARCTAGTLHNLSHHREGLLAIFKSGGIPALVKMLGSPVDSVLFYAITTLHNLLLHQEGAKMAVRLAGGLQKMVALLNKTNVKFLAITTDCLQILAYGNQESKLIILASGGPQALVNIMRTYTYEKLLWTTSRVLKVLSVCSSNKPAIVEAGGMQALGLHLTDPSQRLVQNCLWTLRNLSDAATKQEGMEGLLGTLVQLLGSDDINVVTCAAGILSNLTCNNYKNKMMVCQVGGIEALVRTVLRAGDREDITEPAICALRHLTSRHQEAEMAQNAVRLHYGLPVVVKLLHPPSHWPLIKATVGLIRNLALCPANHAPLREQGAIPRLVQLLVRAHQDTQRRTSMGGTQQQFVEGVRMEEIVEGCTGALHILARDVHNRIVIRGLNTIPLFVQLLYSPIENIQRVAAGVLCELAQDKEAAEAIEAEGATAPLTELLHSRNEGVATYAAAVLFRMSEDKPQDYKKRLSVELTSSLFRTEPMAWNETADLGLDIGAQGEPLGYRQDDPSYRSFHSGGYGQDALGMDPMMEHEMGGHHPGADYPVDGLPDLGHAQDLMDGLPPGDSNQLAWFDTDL

[2] = molecular target: beta-catenin-Halo NanoBRET construct (Homo sapiens (Human)) (UniProt P35222); experiment: NanoBRET, Bcat-Halo/TCF4-Luc in HEK293 cells; peptide 10 uM; replicate 1; competitor TCF4-Luc
[3] = molecular target: beta-catenin-Halo NanoBRET construct (Homo sapiens (Human)) (UniProt P35222); experiment: NanoBRET, Bcat-Halo/TCF4-Luc in HEK293 cells; peptide 20 uM; replicate 1; competitor TCF4-Luc
[4] = molecular target: beta-catenin-Halo NanoBRET construct (Homo sapiens (Human)) (UniProt P35222); experiment: NanoBRET, Bcat-Halo/TCF4-Luc in HEK293 cells; peptide 20 uM; replicate 2; competitor TCF4-Luc
[5] = molecular target: beta-catenin-Halo NanoBRET construct (Homo sapiens (Human)) (UniProt P35222); experiment: NanoBRET, Bcat-Halo/TCF4-Luc in HEK293 cells; peptide 2.5 uM; replicate 1; competitor TCF4-Luc
[6] = molecular target: beta-catenin-Halo NanoBRET construct (Homo sapiens (Human)) (UniProt P35222); experiment: NanoBRET, Bcat-Halo/TCF4-Luc in HEK293 cells; peptide 2.5 uM; replicate 3; competitor TCF4-Luc
[7] = molecular target: beta-catenin-Halo NanoBRET construct (Homo sapiens (Human)) (UniProt P35222); experiment: NanoBRET, Bcat-Halo/TCF4-Luc in HEK293 cells; peptide 1.25 uM; replicate 1; competitor TCF4-Luc
[8] = molecular target: beta-catenin-Halo (NanoBRET construct expressed in HEK293 cells) (Homo sapiens (Human)) (UniProt P35222); experiment: NanoBRET, HEK293 cells with Bcat-Halo and TCF4-Luc; plate row D (5 uM by plate map), plate column 5
beta-catenin-Halo (NanoBRET construct expressed in HEK293 cells) (Homo sapiens (Human)), sequence (P35222 whole entry): as above

[9] = molecular target: beta-catenin-Halo (NanoBRET construct expressed in HEK293 cells) (Homo sapiens (Human)) (UniProt P35222); experiment: NanoBRET, HEK293 cells with Bcat-Halo and TCF4-Luc; plate row D (5 uM by plate map), plate column 6
[10] = molecular target: beta-catenin-Halo (NanoBRET construct expressed in HEK293 cells) (Homo sapiens (Human)) (UniProt P35222); experiment: NanoBRET, HEK293 cells with Bcat-Halo and TCF4-Luc; plate row D (5 uM by plate map), plate column 7
[11] = molecular target: beta-catenin-Halo (NanoBRET construct expressed in HEK293 cells) (Homo sapiens (Human)) (UniProt P35222); experiment: NanoBRET, HEK293 cells with Bcat-Halo and TCF4-Luc; plate row B (20 uM by plate map), plate column 5
[12] = molecular target: beta-catenin-Halo (NanoBRET construct expressed in HEK293 cells) (Homo sapiens (Human)) (UniProt P35222); experiment: NanoBRET, HEK293 cells with Bcat-Halo and TCF4-Luc; plate row C (10 uM by plate map), plate column 5
[13] = molecular target: beta-catenin-Halo (NanoBRET construct expressed in HEK293 cells) (Homo sapiens (Human)) (UniProt P35222); experiment: NanoBRET, HEK293 cells with Bcat-Halo and TCF4-Luc; plate row E (2.5 uM by plate map), plate column 5
[14] = molecular target: beta-catenin-Halo (NanoBRET construct expressed in HEK293 cells) (Homo sapiens (Human)) (UniProt P35222); experiment: NanoBRET, HEK293 cells with Bcat-Halo and TCF4-Luc; plate row F (1.25 uM by plate map), plate column 7
[15] = molecular target: beta-catenin-Halo (NanoBRET construct expressed in HEK293 cells) (Homo sapiens (Human)) (UniProt P35222); experiment: NanoBRET, HEK293 cells with Bcat-Halo and TCF4-Luc; plate row G (0.625 uM by plate map), plate column 6
[16] = molecular target: beta-catenin-Halo (NanoBRET construct expressed in HEK293 cells) (Homo sapiens (Human)) (UniProt P35222); experiment: NanoBRET, HEK293 cells with Bcat-Halo and TCF4-Luc; plate row G (0.625 uM by plate map), plate column 7
[17] = molecular target: beta-catenin-Halo NanoBRET construct (Homo sapiens (Human)) (UniProt P35222); experiment: NanoBRET raw acceptor reading, Bcat-Halo/TCF4-Luc in HEK293 cells; plate row D (5 uM by plate map); competitor TCF4-Luc
[18] = molecular target: beta-catenin-Halo NanoBRET construct (Homo sapiens (Human)) (UniProt P35222); experiment: NanoBRET raw acceptor reading, Bcat-Halo/TCF4-Luc in HEK293 cells; plate row B (20 uM by plate map); competitor TCF4-Luc
[19] = molecular target: beta-catenin-Halo NanoBRET construct (Homo sapiens (Human)) (UniProt P35222); experiment: NanoBRET raw acceptor reading, Bcat-Halo/TCF4-Luc in HEK293 cells; plate row C (10 uM by plate map); competitor TCF4-Luc

% Inhibition [1]: -28.4% | % Inhibition [2]: -21.7% | % Inhibition [3]: -36.7% | % Inhibition [4]: -0.3% | % Inhibition [5]: -21.3% | % Inhibition [6]: -11.7% | % Inhibition [7]: -24.8% | NanoBRET donor emission 450 BP (raw reading) [8]: 38800 | NanoBRET donor emission 450 BP (raw reading) [9]: 29900 | NanoBRET donor emission 450 BP (raw reading) [10]: 47500 | NanoBRET donor emission 450 BP (raw reading) [11]: 58500 | NanoBRET donor emission 450 BP (raw reading) [12]: 58500 | NanoBRET donor emission 450 BP (raw reading) [13]: 34100 | NanoBRET donor emission 450 BP (raw reading) [14]: 71100 | NanoBRET donor emission 450 BP (raw reading) [15]: 35700 | NanoBRET donor emission 450 BP (raw reading) [16]: 47600 | Acceptor 600 LP emission [17]: 510 and 420 and 630 | Acceptor 600 LP emission [18]: 860 and 660 and 640 | Acceptor 600 LP emission [19]: 790 and 350 and 470
B1: I-797 (peptide)
peptide: Ac-[αAllylPro]F[tBuAla][B5]DDAADN[PyrS2][3Thi][Bta]Q-NH2
modifications: staple 1-4, 4-11
